The results in this text go back to patent US20120252071A1 (ROCHE DIAGNOSTICS OPERATIONS, published 2012).

The labels stand for the following.
B1: T7 variant #8 [Cys125Ser, Cys347Ser, Cys492Ser, Cys515Ser, Cys723Ser, Cys839Ser] including His6-tag (enzyme)
chain: MNTINIAKNDFSDIELAAIPFNTLADHYGERLAREQLALEHESYEMGEARFRKMFERQLKAGEVADNAAAKPLITTLLPKMIARINDWFEEVKAKRGKRPTAFQFLQEIKPEAVAYITIKTTLASLTSADNTTVQAVASAIGRAIEDEARFGRIRDLEAKHFKKNVEEQLNKRVGHVYKKAFMQVVEADMLSKGLLGGEAWSSWHKEDSIHVGVRCIEMLIESTGMVSLHRQNAGVVGQDSETIELAPEYAEAIATRAGALAGISPMFQPCVVPPKPWTGITGGGYWANGRRPLALVRTHSKKALMRYEDVYMPEVYKAINIAQNTAWKINKKVLAVANVITKWKHSPVEDIPAIEREELPMKPEDIDMNPEALTAWKRAAAAVYRKDKARKSRRISLEFMLEQANKFANHKAIWFPYNMDWRGRVYAVSMFNPQGNDMTKGLLTLAKGKPIGKEGYYWLKIHGANCAGVDKVPFPERIKFIEENHENIMASAKSPLENTWWAEQDSPFCFLAFSFEYAGVQHHGLSYNCSLPLAFDGSCSGIQHFSAMLRDEVGGRAVNLLPSETVQDIYGIVAKKVNEILQADAINGTDNEVVTVTDENTGEISEKVKLGTKALAGQWLAYGVTRSVTKRSVMTLAYGSKEFGFRQQVLEDTIQPAIDSGKGLMFTQPNQAAGYMAKLIWESVSVTVVAAVEAMNWLKSAAKLLAAEVKDKKTGEILRKRSAVHWVTPDGFPVWQEYKKPIQTRLNLMFLGQFRLQPTINTNKDSEIDAHKQESGIAPNFVHSQDGSHLRKTVVWAHEKYGIESFALIHDSFGTIPADAANLFKAVRETMVDTYESSDVLADFYDQFADQLHESQLDKMPALPAKGNLNLRDILESDFAFA
notes: also called six-fold mutant; sextuple T7 variant; not shown: N-terminal His6-tag with linker
B2: T7 variant #35 [Cys723Ser, Val426Leu, Val650Leu, Ala702Val, Val795Ile] (enzyme)
chain: B1 chain with S125C, S347C, V426L, S492C, S515C, V650L, A702V, V795I, S839C
notes: not shown: N-terminal His-tag
B3: T7 variant #36 [C125S, C347S, C492S, C515S, C723S, C839S, V426L, V650L, A702V, V795I] (enzyme)
chain: B1 chain with V426L, V650L, A702V, V795I
notes: not shown: N-terminal His-tag
B4: T7 variant #26 [Cys723Ser, Ala702Val, Val795Ile] (enzyme)
chain: B1 chain with S125C, S347C, S492C, S515C, A702V, V795I, S839C
notes: not shown: N-terminal His-tag
B5: T7 variant #28 [Cys723Ser, Val426Leu, Ala702Val] (enzyme)
chain: B1 chain with S125C, S347C, V426L, S492C, S515C, A702V, S839C
notes: not shown: N-terminal His-tag
B6: T7 variant #33 [Cys125Ser, Cys347Ser, Cys492Ser, Cys515Ser, Cys723Ser, Cys839Ser, Val426Leu, Ala702Val, Val795Ile] (enzyme)
chain: B1 chain with V426L, A702V, V795I
notes: not shown: N-terminal His-tag
B7: T7 variant #32 [Cys723Ser, Val426Leu, Ala702Val, Val795Ile] (enzyme)
chain: B1 chain with S125C, S347C, V426L, S492C, S515C, A702V, V795I, S839C
notes: not shown: N-terminal His-tag
B8: T7 variant #30 [Cys723Ser, Val426Leu, Val795Ile] (enzyme)
chain: B1 chain with S125C, S347C, V426L, S492C, S515C, V795I, S839C
notes: not shown: N-terminal His-tag

Changes are numbered by the printed parent chain. Names may count otherwise.

One data set deals with the molecule itself. In words: non-reducing SDS-PAGE after 16 h at 37 C without reducing agent (self-association by disulfide bonds). The method, then: Samples of T7 variants were prepared according to a procedure described in Example 4. T7 RNA polymerase and variants thereof were analyzed by gel electrophoresis on polyacrylamide gels containing sodium dodecylsulphate (SDS). Gradient gels (NuPAGE, 4-12%, Bis-Tris Gel, Invitrogen) were used. Typically, protein samples (0.26 mg/ml, 18 μl) were mixed with 6 μl of NuPAGE LDS (Lithium dodecyl sulfate; LDS may also be substituted by sodium dodecyl sulfate) sample buffer, (4×, Invitrogen). After heating for 2 min at 85° C., samples (20 μl) were applied on the gel. The total amount of protein in a single lane of the gel was between 1 μg and 3 μg. Gels were run in SDS Running Buffer (1×MES, Invitrogen) at 200 V for 1 hour.
Further, samples of wild-type T7 and T7 variants (0.2 to 0.3 mg/ml each) were incubated at 37° C. for 16 hours in 25 mM Tris/HCl, pH 7.5 (adjusted at 25° C.), 0.1 mM EDTA, 100 mM NaCl. Aliquots were removed and applied on the SDS gels under reducing conditions or under non-reducing conditions. After incubation a sample of each treated preparation was subjected to SDS polyacrylamide gel electrophoresis as described in Example 5. Results are depicted in FIG. 2 (reducing reagents absent) and FIG. 3 (10 mM DTT added).
With reference to FIG. 2 (reducing reagents absent), and in reference to Examples 5, 6, and 7, a stained SDS polyacrylamide gel is shown. […]
As for B1, the binding result is “no binding (tested: 2.9 µg of protein per lane)”.

A further data set deals with the molecule itself. Put plainly: non-reducing SDS-PAGE (self-association by disulfide bonds).
Consider B2, for which the binding result is “no binding”.

As for B3, the binding result is on record as “no binding”.

For the protein B4, the binding result is “no binding”.

With B5, the binding result is listed as “no binding”.

With B6, the binding result is “no binding”.

As for B7, the binding result is given as “no binding”.

As to B8, the binding result is given as “no binding”.
